Assay results published in paper PMC10132808, “Stimulation of the catalytic activity of the tyrosine kinase Btk by the adaptor protein Grb2” (eLife, 2023).

Molecular target: T1, Grb2 labeled with Alexa Fluor 647 (UniProt P62993 1-217, Alexa Fluor 647 C2 maleimide on a surface cysteine (at most one per molecule; about 17% labeling overall))
T1 construct: The labeled cysteine is not identified; Only about 17% of the preparation carries the dye; also called Grb2-AlexaFluor647; source: E. coli BL21(DE3), purified (HisTrap, TEV cleavage, gel filtration), labeled by maleimide coupling; not shown: His6, N-terminal, cleaved
Test: TIRF microscopy of recruitment to supported-lipid bilayers; N-terminally His-tagged Btk constructs tethered to bilayers with 4% DGS-NTA(Ni), 96% DOPC, washed after equilibration; Grb2-Alexa Fluor 647 added; fluorescence at the membrane over time
Details: both partners purified

- binding result: binds
B1: His-tagged Btk proline-rich linker (domain or fragment, human, UniProt Q06187 171-214, looked up)
chain: RNGSLKPGSSHRKTKKPLPPTPEEDQILKKPLPPEPAAAPVSTS
notes: Btk, human, residues 171-214 (proline-rich linker between the PH-TH module and the SH3 domain); A SUMO module may also be kept, because the protease step was left out; also called the isolated proline-rich linker; source: E. coli BL21(DE3), purified (HisTrap, gel filtration; protease step left out); not shown: His6, N-terminal, kept
